The source of these data is paper PMC6210165, “Structure-Based Engineering of Phanerochaete chrysosporium Alcohol Oxidase for Enhanced Oxidative Power toward Glycerol” (Biochemistry, 2018).

Conditions in all cases: 50 mM potassium phosphate pH 7.5, 25 °C, co-substrate O2, fit errors ≤11%
Substrate in data set [1]: CO
Nature of the data set: HRP-coupled H2O2 assay, steady-state kinetics. Format: biochemical, Phanerodontia chrysosporium. The text has this:
(§1) HRP-coupled H2O2 assay, steady-state kinetics on PcAOX (His-SUMO-PcAOX)

Substrate in data set [2]: CCCO
Nature of the data set: HRP-coupled H2O2 assay, steady-state kinetics. It is filed as biochemical, Phanerodontia chrysosporium.
Excerpt: as §1

Substrate in data set [3]: CCO
Nature of the data set: purified protein.

B1: PcAOX (His-SUMO-PcAOX) (Phanerodontia chrysosporium) (protein)
chain: MGHPEEVDVIVCGGGPAGCVVAGRLAYADPTLKVMLIEGGANNRDDPWVYRPGIYVRNMQRNGINDKATFYTDTMASSYLRGRRSIVPCANILGGGSSINFQMYTRASASDWDDFKTEGWTCKDLLPLMKRLENYQKPCNNDTHGYDGPIAISNGGQIMPVAQDFLRAAHAIGVPYSDDIQDLTTAHGAEIWAKYINRHTGRRSDAATAYVHSVMDVQDNLFLRCNARVSRVLFDDNNKAVGVAYVPSRNRTHGGKLHETIVKARKMVVLSSGTLGTPQILERSGVGNGELLRQLGIKIVSDLPGVGEQYQDHYTTLSIYRVSNESITTDDFLRGVKDVQRELFTEWEVSPEKARLSSNAIDAGFKIRPTEEELKEMGPEFNELWNRYFKDKPDKPVMFGSIVAGAYADHTLLPPGKYITMFQYLEYPASRGKIHIKSQNPYVEPFFDSGFMNNKADFAPIRWSYKKTREVARRMDAFRGELTSHHPRFHPASPAACKDIDIETAKQIYPDGLTVGIHMGSWHQPSEPYKHDKVIEDIPYTEEDDKAIDDWVADHVETTWHSLGTCAMKPREQGGVVDKRLNVYGTQNLKCVDLSICPDNLGTNTYSSALLVGEKGADLIAEELGLKIKTPHAPVPHAPVPTGRPATQQVR
notes: codon-optimized, E. coli BL21(DE3); N-terminal His-SUMO fusion kept for all kinetics, tag cleaved for crystals; homo-octamer with FAD; residues 2-645 seen in structure
By Km is commonly meant the substrate concentration at which the rate is half of its maximum. Usually kcat stands for the maximal rate divided by the concentration of active sites. Usually kcat/Km stands for the second-order rate constant that governs catalysis at low substrate concentration. As for B1, the Km was found to be 2 mM in data set [1], 45 mM in data set [2] and 15 mM in data set [3]. Moreover, the results for the turnover number (kcat) in data set [1], in data set [2] and in data set [3] were 18 s⁻¹, 11 s⁻¹ and 19 s⁻¹, respectively. The results for the kcat/Km in data set [1], in data set [2] and in data set [3] were 9000 M⁻¹ s⁻¹, 240 M⁻¹ s⁻¹ and 1300 M⁻¹ s⁻¹, respectively.

B2: PcAOX (His-SUMO-PcAOX) (Phanerodontia chrysosporium; F101S) (protein)
chain: MGHPEEVDVIVCGGGPAGCVVAGRLAYADPTLKVMLIEGGANNRDDPWVYRPGIYVRNMQRNGINDKATFYTDTMASSYLRGRRSIVPCANILGGGSSINSQMYTRASASDWDDFKTEGWTCKDLLPLMKRLENYQKPCNNDTHGYDGPIAISNGGQIMPVAQDFLRAAHAIGVPYSDDIQDLTTAHGAEIWAKYINRHTGRRSDAATAYVHSVMDVQDNLFLRCNARVSRVLFDDNNKAVGVAYVPSRNRTHGGKLHETIVKARKMVVLSSGTLGTPQILERSGVGNGELLRQLGIKIVSDLPGVGEQYQDHYTTLSIYRVSNESITTDDFLRGVKDVQRELFTEWEVSPEKARLSSNAIDAGFKIRPTEEELKEMGPEFNELWNRYFKDKPDKPVMFGSIVAGAYADHTLLPPGKYITMFQYLEYPASRGKIHIKSQNPYVEPFFDSGFMNNKADFAPIRWSYKKTREVARRMDAFRGELTSHHPRFHPASPAACKDIDIETAKQIYPDGLTVGIHMGSWHQPSEPYKHDKVIEDIPYTEEDDKAIDDWVADHVETTWHSLGTCAMKPREQGGVVDKRLNVYGTQNLKCVDLSICPDNLGTNTYSSALLVGEKGADLIAEELGLKIKTPHAPVPHAPVPTGRPATQQVR
notes: as for B1
Turning to B2, in data set [1], the Km worked out at 2 mM, the kcat was determined as 18 s⁻¹ and the kcat/Km was 9000 M⁻¹ s⁻¹. Further, in data set [2], the Km was 4 mM, the kcat worked out at 7 s⁻¹ and the kcat/Km was 1800 M⁻¹ s⁻¹. For the same protein, in data set [3], the Km was found to be 1 mM, the kcat amounted to 5 s⁻¹ and the kcat/Km was determined as 5000 M⁻¹ s⁻¹.

B3: PcAOX (His-SUMO-PcAOX) (Phanerodontia chrysosporium; F101N) (protein)
chain: MGHPEEVDVIVCGGGPAGCVVAGRLAYADPTLKVMLIEGGANNRDDPWVYRPGIYVRNMQRNGINDKATFYTDTMASSYLRGRRSIVPCANILGGGSSINNQMYTRASASDWDDFKTEGWTCKDLLPLMKRLENYQKPCNNDTHGYDGPIAISNGGQIMPVAQDFLRAAHAIGVPYSDDIQDLTTAHGAEIWAKYINRHTGRRSDAATAYVHSVMDVQDNLFLRCNARVSRVLFDDNNKAVGVAYVPSRNRTHGGKLHETIVKARKMVVLSSGTLGTPQILERSGVGNGELLRQLGIKIVSDLPGVGEQYQDHYTTLSIYRVSNESITTDDFLRGVKDVQRELFTEWEVSPEKARLSSNAIDAGFKIRPTEEELKEMGPEFNELWNRYFKDKPDKPVMFGSIVAGAYADHTLLPPGKYITMFQYLEYPASRGKIHIKSQNPYVEPFFDSGFMNNKADFAPIRWSYKKTREVARRMDAFRGELTSHHPRFHPASPAACKDIDIETAKQIYPDGLTVGIHMGSWHQPSEPYKHDKVIEDIPYTEEDDKAIDDWVADHVETTWHSLGTCAMKPREQGGVVDKRLNVYGTQNLKCVDLSICPDNLGTNTYSSALLVGEKGADLIAEELGLKIKTPHAPVPHAPVPTGRPATQQVR
notes: as for B1
Take B3: the Km in data set [1] was found to be 14 mM; in data set [2] it was 11 mM; in data set [3], 11 mM. Also, the kcat in data set [1] is 10 s⁻¹; in data set [2] it was 12 s⁻¹; in data set [3] it was 10 s⁻¹. Besides, the kcat/Km in data set [1] was determined as 710 M⁻¹ s⁻¹; in data set [2] it was 1100 M⁻¹ s⁻¹; in data set [3], 910 M⁻¹ s⁻¹.
